Where two headings read alike, the source gives them in different places.
B7: N-CEA F29R (domain or fragment)
chain: AKLTIESTPFNVAEGKEVLLLVHNLPQHLRGYSWYKGERVDGNRQIIGYVIGTQQATPGPAYSGREIIYPNASLLIQNIIQNDTGFYTLHVIKSDLVNEEATGQFRVYPEL
B8: N-terminal domain of carcinoembryonic antigen (N-CEA) (domain or fragment)
chain: AKLTIESTPFNVAEGKEVLLLVHNLPQHLFGYSWYKGERVDGNRQIIGYVIGTQQATPGPAYSGREIIYPNASLLIQNIIQNDTGFYTLHVIKSDLVNEEATGQFRVYPEL
B12: N-CEA Q44R (domain or fragment)
chain: AKLTIESTPFNVAEGKEVLLLVHNLPQHLFGYSWYKGERVDGNRRIIGYVIGTQQATPGPAYSGREIIYPNASLLIQNIIQNDTGFYTLHVIKSDLVNEEATGQFRVYPEL
B13: N-CEA S32N (domain or fragment)
chain: AKLTIESTPFNVAEGKEVLLLVHNLPQHLFGYNWYKGERVDGNRQIIGYVIGTQQATPGPAYSGREIIYPNASLLIQNIIQNDTGFYTLHVIKSDLVNEEATGQFRVYPEL

Assays:
[1] = target: TMR labeled H27C N-CEA mutant (human) (UniProt P06731); assay: absorbance of tetramethylrhodamine dimers
SEC = target: the molecule itself; assay: SEC
cross-linking = target: the molecule itself; assay: cross-linking
[2] = target: B8; assay: SPR
AUC = target: the molecule itself; assay: AUC
N-CEA F29R = target: B7; assay: SPR
N-CEA S32N = target: B13; assay: SPR
N-CEA V39A = target: T1, N-CEA V39A (human, UniProt P06731 34-144, V39A); assay: SPR
T1 sequence: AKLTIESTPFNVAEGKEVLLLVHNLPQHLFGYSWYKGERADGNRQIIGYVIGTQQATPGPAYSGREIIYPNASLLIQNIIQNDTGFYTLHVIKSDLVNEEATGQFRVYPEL

N-CEA Q44R = target: B12; assay: SPR
[3] = target: B8; assay: SPR; remark: listed apart in the source
[4] = target: B8; assay: SPR; remark: listed apart in the source

DraE monomer (DraE-dsc) (natural protein)
518/555 absorbance ratio of TMR-labeled N-CEA after dilution with DraE [1]: 0.48

B1: N-CEA L95C (domain or fragment)
chain: AKLTIESTPFNVAEGKEVLLLVHNLPQHLFGYSWYKGERVDGNRQIIGYVIGTQQATPGPAYSGREIIYPNASLLIQNIIQNDTGFYTLHVIKSDCVNEEATGQFRVYPEL
stoichiometry N (SEC): 2

B2: N-CEA H89Q (domain or fragment)
chain: AKLTIESTPFNVAEGKEVLLLVHNLPQHLFGYSWYKGERVDGNRQIIGYVIGTQQATPGPAYSGREIIYPNASLLIQNIIQNDTGFYTLQVIKSDLVNEEATGQFRVYPEL
stoichiometry N (SEC): 2

B3: N-CEA L95A (domain or fragment)
chain: AKLTIESTPFNVAEGKEVLLLVHNLPQHLFGYSWYKGERVDGNRQIIGYVIGTQQATPGPAYSGREIIYPNASLLIQNIIQNDTGFYTLHVIKSDAVNEEATGQFRVYPEL
stoichiometry N (SEC): 2

B4: N-CEA V39C mutant (domain or fragment)
chain: AKLTIESTPFNVAEGKEVLLLVHNLPQHLFGYSWYKGERCDGNRQIIGYVIGTQQATPGPAYSGREIIYPNASLLIQNIIQNDTGFYTLHVIKSDLVNEEATGQFRVYPEL
stoichiometry N (cross-linking): 2

B5: N-CEA L74A (domain or fragment)
chain: AKLTIESTPFNVAEGKEVLLLVHNLPQHLFGYSWYKGERVDGNRQIIGYVIGTQQATPGPAYSGREIIYPNASLAIQNIIQNDTGFYTLHVIKSDLVNEEATGQFRVYPEL
stoichiometry N (SEC): 2

B6: N-CEA F29I (domain or fragment)
chain: AKLTIESTPFNVAEGKEVLLLVHNLPQHLIGYSWYKGERVDGNRQIIGYVIGTQQATPGPAYSGREIIYPNASLLIQNIIQNDTGFYTLHVIKSDLVNEEATGQFRVYPEL
stoichiometry N (SEC): 2

B7
Kd [2]: ~200 µM

B8
Kd (AUC): 0.8 µM | stoichiometry N (SEC): 2

B9: N-CEA Q76A (domain or fragment)
chain: AKLTIESTPFNVAEGKEVLLLVHNLPQHLFGYSWYKGERVDGNRQIIGYVIGTQQATPGPAYSGREIIYPNASLLIANIIQNDTGFYTLHVIKSDLVNEEATGQFRVYPEL
stoichiometry N (SEC): 2

B10: N-CEA D40A (domain or fragment)
chain: AKLTIESTPFNVAEGKEVLLLVHNLPQHLFGYSWYKGERVAGNRQIIGYVIGTQQATPGPAYSGREIIYPNASLLIQNIIQNDTGFYTLHVIKSDLVNEEATGQFRVYPEL
stoichiometry N (SEC): 2

B11: N-terminal domain of CEACAM1 (N-CEACAM1) (domain or fragment)
chain: QLTTESMPFNVAEGKEVLLLVHNLPQQLFGYSWYKGERVDGNRQIVGYAIGTQQATPGPANSGRETIYPNASLLIQNVTQNDTGFYTLQVIKSDLVNEEATGQFHVYP
Kd (N-CEA F29R): ~100 µM | Kd (N-CEA S32N): ~100 µM | Kd (N-CEA V39A): ~100 µM | Kd (N-CEA Q44R): 72 ± 9 µM

B12
Kd [2]: ~130 µM

B13
Kd [2]: ~200 µM

B14: N-CEA I91A (domain or fragment)
chain: AKLTIESTPFNVAEGKEVLLLVHNLPQHLFGYSWYKGERVDGNRQIIGYVIGTQQATPGPAYSGREIIYPNASLLIQNIIQNDTGFYTLHVAKSDLVNEEATGQFRVYPEL
Kd [2]: 55 ± 6 µM

B15: N-terminal domain of CEACAM6 (N-CEACAM6) (domain or fragment)
chain: KLTIESTPFNVAEGKEVLLLAHNLPQNRIGYSWYKGERVDGNSLIVGYVIGTQQATPGPAYSGRETIYPNASLLIQNVTQNDTGFYTLQVIKSDLVNEEATGQFHVYP
Kd [3]: ~100 µM | Kd (N-CEA F29R): ~200 µM | Kd (N-CEA S32N): ~200 µM | Kd (N-CEA Q44R): 28 ± 3 µM | Kd [4]: 65 ± 7 µM
